Test system: ORCA-3 (Catharanthus roseus)
Experiment: cell_activity
Conditions: GUS/CAT, C. roseus cells

Chain of ORCA-3 (Catharanthus roseus) (chain, as listed by the source): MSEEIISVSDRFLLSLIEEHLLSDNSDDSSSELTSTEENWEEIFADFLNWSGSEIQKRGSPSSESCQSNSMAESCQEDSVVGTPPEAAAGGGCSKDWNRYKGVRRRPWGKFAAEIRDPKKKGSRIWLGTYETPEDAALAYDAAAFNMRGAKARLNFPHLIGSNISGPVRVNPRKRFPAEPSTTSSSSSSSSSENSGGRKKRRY

Str1 NH promoter (-202 to -1)
activity (fold activation): 5
